Assay results: article PMC10949315, “RrA, an enzyme from Rhodospirillum rubrum, is a prototype of a new family of short‐chain L‐asparaginases” (Protein Science : A Publication of the Protein Society, 2024)
Blank lines part the entries; values can stand above or below the molecule they belong to.

Tests used:
[1] = target: RrA(Y21A) (Rhodospirillum rubrum); assay: dynamic light scattering; protein at 0.22-1.1 mM in the standard buffer (50 mM HEPES, 200 mM NaCl, pH 7), 20°C, DynaPro Nanostar; proteins modelled as globular; oligomer in solution
[2] = target: RrA(Y21A) (Rhodospirillum rubrum); assay: crystal structure; hanging drops, 293 K, protein 19-21 mg/mL in the standard buffer, with or without L-Asp; tetramer as a dimer of tight dimers, in the asymmetric unit or made by crystal symmetry
[3] = target: RrA(Y21F) (Rhodospirillum rubrum); assay: dynamic light scattering; protein at 0.22-1.1 mM in the standard buffer (50 mM HEPES, 200 mM NaCl, pH 7), 20°C, DynaPro Nanostar; proteins modelled as globular; oligomer in solution
[4] = target: RrA(Y21F) (Rhodospirillum rubrum); assay: crystal structure; hanging drops, 293 K, protein 19-21 mg/mL in the standard buffer, with or without L-Asp; tetramer as a dimer of tight dimers, in the asymmetric unit or made by crystal symmetry
[5] = target: T1, RrA (Rhodospirillum rubrum, UniProt Q2RMX1); assay: nanoDSF back-reflection, aggregation onset; format: binding; settings: 20 mM ligand, 0.1 M Na-citrate pH 5.0, 0.2 M NaCl; 42.3 °C without ligand
T1 construct: gene Rru_A3730; full length, 172 residues, Lys149 natural variant (Glu149 in the first report); synthetic gene in pET15b, N-terminal His6 tag removed by TEV protease, expressed in E. coli BL21(DE3) RIPL; homotetramer, active site completed by Tyr21 and Asn26 of another protomer
T1 sequence (Q2RMX1 1-172): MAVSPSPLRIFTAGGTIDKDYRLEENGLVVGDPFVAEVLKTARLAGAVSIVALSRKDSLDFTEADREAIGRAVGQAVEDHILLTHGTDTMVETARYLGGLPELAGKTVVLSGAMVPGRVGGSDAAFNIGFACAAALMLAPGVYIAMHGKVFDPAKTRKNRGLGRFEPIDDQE

[6] = target: RrA(K158M) (Rhodospirillum rubrum); assay: dynamic light scattering; protein at 0.22-1.1 mM in the standard buffer (50 mM HEPES, 200 mM NaCl, pH 7), 20°C, DynaPro Nanostar; proteins modelled as globular; oligomer in solution
[7] = target: RrA(K158M) (Rhodospirillum rubrum); assay: crystal structure; hanging drops, 293 K, protein 19-21 mg/mL in the standard buffer, with or without L-Asp; tetramer as a dimer of tight dimers, in the asymmetric unit or made by crystal symmetry
[8] = target: RrA(K19E) (Rhodospirillum rubrum); assay: dynamic light scattering; protein at 0.22-1.1 mM in the standard buffer (50 mM HEPES, 200 mM NaCl, pH 7), 20°C, DynaPro Nanostar; proteins modelled as globular; oligomer in solution
[9] = target: RrA(K19E) (Rhodospirillum rubrum); assay: crystal structure; hanging drops, 293 K, protein 19-21 mg/mL in the standard buffer, with or without L-Asp; tetramer as a dimer of tight dimers, in the asymmetric unit or made by crystal symmetry
[10] = target: RrA(K19Q) (Rhodospirillum rubrum); assay: dynamic light scattering; protein at 0.22-1.1 mM in the standard buffer (50 mM HEPES, 200 mM NaCl, pH 7), 20°C, DynaPro Nanostar; proteins modelled as globular; oligomer in solution
[11] = target: RrA(K19Q) (Rhodospirillum rubrum); assay: crystal structure; hanging drops, 293 K, protein 19-21 mg/mL in the standard buffer, with or without L-Asp; tetramer as a dimer of tight dimers, in the asymmetric unit or made by crystal symmetry
[12] = target: T2, RrA (Rhodospirillum rubrum, UniProt Q2RMX1, Y21F); assay: X-ray crystal structure, […] Å; format: binding; settings: active site, three of four protomers; also 8up3 (co-purified L-Asp in some protomers)
T2 construct: gene Rru_A3730; full length, 172 residues, Lys149 natural variant (Glu149 in the first report); synthetic gene in pET15b, N-terminal His6 tag removed by TEV protease, expressed in E. coli BL21(DE3) RIPL; homotetramer, active site completed by Tyr21 and Asn26 of another protomer
T2 sequence (Q2RMX1 entry or part of it Y21F): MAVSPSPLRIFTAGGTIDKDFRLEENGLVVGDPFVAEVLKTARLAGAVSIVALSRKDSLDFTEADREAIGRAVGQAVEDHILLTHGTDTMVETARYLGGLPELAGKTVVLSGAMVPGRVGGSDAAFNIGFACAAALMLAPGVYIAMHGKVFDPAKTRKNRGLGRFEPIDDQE

[13] = target: RrA(K19A) (Rhodospirillum rubrum); assay: dynamic light scattering; protein at 0.22-1.1 mM in the standard buffer (50 mM HEPES, 200 mM NaCl, pH 7), 20°C, DynaPro Nanostar; proteins modelled as globular; oligomer in solution
[14] = target: RrA(K19A) (Rhodospirillum rubrum); assay: crystal structure; hanging drops, 293 K, protein 19-21 mg/mL in the standard buffer, with or without L-Asp; tetramer as a dimer of tight dimers, in the asymmetric unit or made by crystal symmetry
[15] = target: the molecule itself; assay: mass photometry; RrA(wt) at 25 nM and 65 nM in the standard buffer (50 mM HEPES, 200 mM NaCl, pH 7), 20°C, Refeyn TwoMP; minor lower-mass peak only in the 25 nM sample
[16] = substrate: NC(=O)C[C@H](N)C(=O)O; assay: ammonia release by Nessler's reagent, A480; Lineweaver-Burk; format: biochemical, Rhodospirillum rubrum; settings: PBS pH 7.4, 20 °C, substrate inhibition above 5 mM
[17] = target: the molecule itself; assay: dynamic light scattering; protein at 0.22-1.1 mM in the standard buffer (50 mM HEPES, 200 mM NaCl, pH 7), 20°C, DynaPro Nanostar; proteins modelled as globular; oligomer in solution

stoichiometry N [1]: 4 | stoichiometry N [2]: 4
Molecule: RrA(Y21A) (enzyme)

stoichiometry N [3]: 4 | stoichiometry N [4]: 4
Molecule: RrA(Y21F) (enzyme)

T agg [5]: 61.5 °C
Molecule: N[C@@H](CCC(=O)O)C(=O)O [L‐Glu]

stoichiometry N [6]: 4 | stoichiometry N [7]: 4
Molecule: RrA(K158M) (enzyme)

stoichiometry N [8]: 4 | stoichiometry N [9]: 4
Molecule: RrA(K19E) (enzyme)

stoichiometry N [10]: 4 | stoichiometry N [11]: 4
Molecule: RrA(K19Q) (enzyme)

T agg [5]: 61.3 °C
Molecule: N[C@@H](CC(=O)O)C(=O)O [L‐Asp]
X-ray crystal structure, 1.90 Å [12]: the ligand was present in three out of four protomers

stoichiometry N [13]: 4 | stoichiometry N [14]: 4
Molecule: RrA(K19A) (enzyme)

B1: RrA(wt), short-chain L-asparaginase from Rhodospirillum rubrum (enzyme, UniProt Q2RMX1 1-172, looked up)
chain: MAVSPSPLRIFTAGGTIDKDYRLEENGLVVGDPFVAEVLKTARLAGAVSIVALSRKDSLDFTEADREAIGRAVGQAVEDHILLTHGTDTMVETARYLGGLPELAGKTVVLSGAMVPGRVGGSDAAFNIGFACAAALMLAPGVYIAMHGKVFDPAKTRKNRGLGRFEPIDDQE
notes: L-asparaginase RrA of Rhodospirillum rubrum, synthetic gene of GenBank QXG80441.1; protomer of 172 residues (Met1 traced in the structure); the GenBank entry and the PDB entries hold; source: E. coli BL21(DE3) RIPL, pET15b, purified (HisTrap, TEV cleavage, second HisTrap flow-through, Superdex 75); not shown: His6, N-terminal, cleaved
stoichiometry N [15]: 2 | Km [16]: 3.6 ± 0.3 mM | kcat [16]: 58.2 ± 3.0 s⁻¹ | stoichiometry N [17]: 4
